From patent US20240117018A1

Columns and labels:
[1] = molecular target: monomeric HIV-1 Ba-L gp120 (HIV-1 Ba-L); test: retention on the gp120 affinity column
[2] = molecular target: HIV-1 Env pseudovirus 89-F1_2_25 (HIV-1); test: cell-based or functional assay
[3] = molecular target: HIV-1 Env pseudovirus P1981_C5_3 (HIV-1); test: cell-based or functional assay
[4] = molecular target: HIV-1 Env pseudovirus 235-47 (HIV-1); test: cell-based or functional assay
[5] = molecular target: HIV-1 Env pseudovirus T251-18 (HIV-1); test: cell-based or functional assay
[6] = molecular target: HIV-1 Env pseudovirus X1254_c3 (HIV-1); test: cell-based or functional assay
[7] = molecular target: HIV-1 Env pseudovirus 6041.v3.c23 (HIV-1); test: cell-based or functional assay
[8] = molecular target: HIV-1 Env pseudovirus X1193_c1 (HIV-1); test: cell-based or functional assay
[9] = molecular target: HIV-1 Env pseudovirus R1166.c01 (HIV-1); test: cell-based or functional assay
[10] = molecular target: HIV-1 Env pseudovirus CNE5 (HIV-1); test: cell-based or functional assay
[11] = molecular target: HIV-1 Env pseudovirus R2184.c04 (HIV-1); test: cell-based or functional assay
[12] = molecular target: HIV-1 Env pseudovirus C3347.c11 (HIV-1); test: cell-based or functional assay
[13] = molecular target: HIV-1 Env pseudovirus R3265.c06 (HIV-1); test: cell-based or functional assay
[14] = molecular target: HIV-1 Env pseudovirus BJOX025000.01.1 (HIV-1); test: cell-based or functional assay
[15] = molecular target: HIV-1 Env pseudovirus 6811.v7.c18 (HIV-1); test: cell-based or functional assay
[16] = molecular target: HIV-1 Env pseudovirus T250-4 (HIV-1); test: cell-based or functional assay
[17] = molecular target: HIV-1 Env pseudovirus X1632_S2_B10 (HIV-1); test: cell-based or functional assay
[18] = molecular target: HIV-1 Env pseudovirus 3817.v2.c59 (HIV-1); test: cell-based or functional assay
[19] = molecular target: HIV-1 Env pseudovirus T278-50 (HIV-1); test: cell-based or functional assay
[20] = molecular target: HIV-1 Env pseudovirus C1080.c03 (HIV-1); test: cell-based or functional assay
[21] = molecular target: HIV-1 Env pseudovirus 3016.v5.c45 (HIV-1); test: cell-based or functional assay
[22] = molecular target: HIV-1 Env pseudovirus 6952.v1.c20 (HIV-1); test: cell-based or functional assay
[23] = molecular target: HIV-1 Env pseudovirus 211-9 (HIV-1); test: cell-based or functional assay
[24] = molecular target: HIV-1 Env pseudovirus BJOX010000.06.2 (HIV-1); test: cell-based or functional assay
[25] = molecular target: HIV-1 Env pseudovirus A07412M1.vrc12 (HIV-1); test: cell-based or functional assay
[26] = molecular target: HIV-1 Env pseudovirus BJOX015000.11.5 (HIV-1); test: cell-based or functional assay
[27] = molecular target: HIV-1 Env pseudovirus 6540.v4.c1 (HIV-1); test: cell-based or functional assay
[28] = molecular target: HIV-1 Env pseudovirus BJOX028000.10.3 (HIV-1); test: cell-based or functional assay
[29] = molecular target: HIV-1 Env pseudovirus 620345.c01 (HIV-1); test: cell-based or functional assay
[30] = molecular target: HIV-1 Env pseudovirus 231966.c02 (HIV-1); test: cell-based or functional assay
[31] = molecular target: HIV-1 Env pseudovirus T255-34 (HIV-1); test: cell-based or functional assay
[32] = molecular target: HIV-1 Env pseudovirus 0815.v3.c3 (HIV-1); test: cell-based or functional assay
[33] = molecular target: HIV-1 Env pseudovirus X2131_C1_B5 (HIV-1); test: cell-based or functional assay
[34] = molecular target: HIV-1 Env pseudovirus X2088_c9 (HIV-1); test: cell-based or functional assay
[35] = molecular target: HIV-1 Env pseudovirus P0402_c2_11 (HIV-1); test: cell-based or functional assay
[36] = molecular target: HIV-1 Env pseudovirus C2101.c01 (HIV-1); test: cell-based or functional assay
[37] = molecular target: HIV-1 Env pseudovirus BJOX009000.02.4 (HIV-1); test: cell-based or functional assay
[38] = molecular target: HIV-1 Env pseudovirus 231965.c01 (HIV-1); test: cell-based or functional assay
[39] = molecular target: HIV-1 Env pseudovirus 3301.v1.c24 (HIV-1); test: cell-based or functional assay
[40] = molecular target: HIV-1 Env pseudovirus 6545.v4.c1 (HIV-1); test: cell-based or functional assay
[41] = molecular target: HIV-1 Env pseudovirus C4118.c09 (HIV-1); test: cell-based or functional assay
[42] = molecular target: HIV-1 Env pseudovirus 6480.v4.c25 (HIV-1); test: cell-based or functional assay
[43] = molecular target: HIV-1 Env pseudovirus 3103.v3.c10 (HIV-1); test: cell-based or functional assay
[44] = molecular target: HIV-1 93TH057 gp120 coree (HIV-1); test: EBI PISA on PDB 5te6 (structure not solved in this filing)
[45] = molecular target: HIV-1 93TH057 gp120 coree (HIV-1); test: EBI PISA on PDB 3ngb (structure not solved in this filing)

**Q.** With Synagis (antibody) as the substance, how does the recovery on the gp120 affinity column [1] read?
**A.** < 1%

**Q.** Which results are given for 45-46 (antibody)?
**A.** IC50 (Titer in TZM.bl cells) [2]: > 50 µg/mL; IC80 (Titer in TZM.bl cells) [2]: > 50 µg/mL; IC50 (Titer in TZM.bl cells) [3]: 0.05 µg/mL; IC80 (Titer in TZM.bl cells) [3]: 0.22 µg/mL; IC50 (Titer in TZM.bl cells) [4]: 0.3 µg/mL; IC80 (Titer in TZM.bl cells) [4]: 1.49 µg/mL; IC50 (Titer in TZM.bl cells) [5]: 5.26 µg/mL; IC80 (Titer in TZM.bl cells) [5]: 5.26 µg/mL; IC50 (Titer in TZM.bl cells) [6]: 0.08 µg/mL; IC80 (Titer in TZM.bl cells) [6]: 0.08 µg/mL; IC50 (Titer in TZM.bl cells) [7]: 0.01 µg/mL; IC80 (Titer in TZM.bl cells) [7]: 0.04 µg/mL; IC50 (Titer in TZM.bl cells) [8]: 0.04 µg/mL; IC80 (Titer in TZM.bl cells) [8]: 0.16 µg/mL; IC50 (Titer in TZM.bl cells) [9]: 1.68 µg/mL; IC80 (Titer in TZM.bl cells) [9]: 1.68 µg/mL; IC50 (Titer in TZM.bl cells) [10]: 0.09 µg/mL; IC80 (Titer in TZM.bl cells) [10]: 0.41 µg/mL; IC50 (Titer in TZM.bl cells) [11]: 0.03 µg/mL; IC80 (Titer in TZM.bl cells) [11]: 0.12 µg/mL; IC50 (Titer in TZM.bl cells) [12]: 0.03 µg/mL; IC80 (Titer in TZM.bl cells) [12]: 0.18 µg/mL; IC50 (Titer in TZM.bl cells) [13]: 0.04 µg/mL; IC80 (Titer in TZM.bl cells) [13]: 0.44 µg/mL; IC50 (Titer in TZM.bl cells) [14]: 0.18 µg/mL; IC80 (Titer in TZM.bl cells) [14]: 10 µg/mL; IC50 (Titer in TZM.bl cells) [15]: 0.03 µg/mL; IC80 (Titer in TZM.bl cells) [15]: 0.13 µg/mL; IC50 (Titer in TZM.bl cells) [16]: > 30 µg/mL; IC80 (Titer in TZM.bl cells) [16]: > 30 µg/mL; IC50 (Titer in TZM.bl cells) [17]: 0.07 µg/mL; IC80 (Titer in TZM.bl cells) [17]: > 50 µg/mL; IC50 (Titer in TZM.bl cells) [18]: > 50 µg/mL; IC80 (Titer in TZM.bl cells) [18]: > 50 µg/mL; IC50 (Titer in TZM.bl cells) [19]: > 30 µg/mL; IC80 (Titer in TZM.bl cells) [19]: > 30 µg/mL; IC50 (Titer in TZM.bl cells) [20]: 1.79 µg/mL; IC80 (Titer in TZM.bl cells) [20]: 18 µg/mL; IC50 (Titer in TZM.bl cells) [21]: > 30 µg/mL; IC80 (Titer in TZM.bl cells) [21]: > 30 µg/mL; IC50 (Titer in TZM.bl cells) [22]: 0.02 µg/mL; IC80 (Titer in TZM.bl cells) [22]: 0.07 µg/mL; IC50 (Titer in TZM.bl cells) [23]: > 50 µg/mL; IC80 (Titer in TZM.bl cells) [23]: > 50 µg/mL; IC50 (Titer in TZM.bl cells) [24]: 0.87 µg/mL; IC80 (Titer in TZM.bl cells) [24]: 6.37 µg/mL; IC50 (Titer in TZM.bl cells) [25]: 0.03 µg/mL; IC80 (Titer in TZM.bl cells) [25]: 0.13 µg/mL; IC50 (Titer in TZM.bl cells) [26]: 0.06 µg/mL; IC80 (Titer in TZM.bl cells) [26]: 0.38 µg/mL; IC50 (Titer in TZM.bl cells) [27]: > 50 µg/mL; IC80 (Titer in TZM.bl cells) [27]: > 50 µg/mL; IC50 (Titer in TZM.bl cells) [28]: 0.07 µg/mL; IC80 (Titer in TZM.bl cells) [28]: > 50 µg/mL; IC50 (Titer in TZM.bl cells) [29]: > 30 µg/mL; IC80 (Titer in TZM.bl cells) [29]: > 30 µg/mL; IC50 (Titer in TZM.bl cells) [30]: 1.11 µg/mL; IC80 (Titer in TZM.bl cells) [30]: 11.4 µg/mL; IC50 (Titer in TZM.bl cells) [31]: 0.23 µg/mL; IC80 (Titer in TZM.bl cells) [31]: 2.38 µg/mL; IC50 (Titer in TZM.bl cells) [32]: 0.01 µg/mL; IC80 (Titer in TZM.bl cells) [32]: 0.03 µg/mL; IC50 (Titer in TZM.bl cells) [33]: 0.2 µg/mL; IC80 (Titer in TZM.bl cells) [33]: 0.9 µg/mL; IC50 (Titer in TZM.bl cells) [34]: > 50 µg/mL; IC80 (Titer in TZM.bl cells) [34]: > 50 µg/mL; IC50 (Titer in TZM.bl cells) [35]: 0.06 µg/mL; IC80 (Titer in TZM.bl cells) [35]: 0.26 µg/mL; IC50 (Titer in TZM.bl cells) [36]: 12.8 µg/mL; IC80 (Titer in TZM.bl cells) [36]: > 50 µg/mL; IC50 (Titer in TZM.bl cells) [37]: 0.26 µg/mL; IC80 (Titer in TZM.bl cells) [37]: 1.16 µg/mL; IC50 (Titer in TZM.bl cells) [38]: 0.1 µg/mL; IC80 (Titer in TZM.bl cells) [38]: 0.1 µg/mL; IC50 (Titer in TZM.bl cells) [39]: 0.01 µg/mL; IC80 (Titer in TZM.bl cells) [39]: 0.03 µg/mL; IC50 (Titer in TZM.bl cells) [40]: > 50 µg/mL; IC80 (Titer in TZM.bl cells) [40]: > 50 µg/mL; IC50 (Titer in TZM.bl cells) [41]: 0.14 µg/mL; IC80 (Titer in TZM.bl cells) [41]: 0.91 µg/mL; IC50 (Titer in TZM.bl cells) [42]: 0.02 µg/mL; IC80 (Titer in TZM.bl cells) [42]: 0.08 µg/mL; IC50 (Titer in TZM.bl cells) [43]: 1.66 µg/mL; IC80 (Titer in TZM.bl cells) [43]: 6.57 µg/mL

**Q.** N6 Fab was tested. Which buried surface area, CDR H3 [44] did it give?
**A.** 123 Å^2

**Q.** Which buried surface area, CDR H3 [45] does the source give for VRC01 Fab here?
**A.** 160 Å^2
